{
  "source": "patent US20190338048A1",
  "key": {"[1]": {"target": "Pertuzumab kappa light chain Q124K_L135A_T178R", "experiment": "LCCA"}, "[2]": {"target": "Pertuzumab kappa light chain Q124R_L135A_Q160K_T178R", "experiment": "LCCA"}, "[3]": {"target": "CAT-2200 lambda light chain T116F_K129T_V133D_S176F", "experiment": "LCCA, SPR tag read-out"}, "[4]": {"target": "Pertuzumab kappa light chain Q124R_L135A_T178R", "experiment": "LCCA, SPR tag read-out"}, "[5]": {"target": "Pertuzumab kappa light chain Q124E_V133D", "experiment": "LCCA, SPR"}, "[6]": {"target": "CAT-2200 lambda light chain E124Q_T131R", "experiment": "LCCA, SPR"}, "[7]": {"target": "CAT-2200 lambda light chain E124Q_T131R", "experiment": "LCCA, SPR tag read-out"}, "[8]": {"target": "Pertuzumab kappa light chain Q124E_V133D_L135W_T180D", "experiment": "LCCA, SPR tag read-out"}, "[9]": {"target": "Pertuzumab kappa light chain Q124E_V133D_L135W", "experiment": "LCCA, SPR tag read-out"}, "[10]": {"target": "Pertuzumab kappa light chain Q124E_V133D_T180D", "experiment": "LCCA, SPR tag read-out"}, "[11]": {"target": "CAT-2200 lambda light chain E124Q_T131R", "experiment": "LCCA, SPR tag read-out", "remark": "listed apart in the source"}, "[12]": {"target": "CAT-2200 lambda light chain S122D_E124Q_T131R", "experiment": "LCCA, SPR tag read-out"}, "[13]": {"target": "Pertuzumab kappa light chain S121K_Q124E_V133D_T180D", "experiment": "LCCA, SPR tag read-out"}, "[14]": {"target": "Pertuzumab kappa light chain S121K_Q124E_V133D", "experiment": "LCCA, SPR tag read-out"}, "[15]": {"target": "CAT-2200 lambda light chain Y178K", "experiment": "LCCA"}, "[16]": {"target": "Pertuzumab kappa light chain Q124E_V133D_S176D_T178E", "experiment": "LCCA"}, "[17]": {"target": "Pertuzumab kappa light chain Q124E_V133D_T178E", "experiment": "LCCA"}, "[18]": {"target": "Pertuzumab kappa light chain Q124E_V133D_S176D_T178E", "experiment": "LCCA", "remark": "listed apart in the source"}, "[19]": {"target": "Pertuzumab kappa light chain Q124E_V133D_T178E", "experiment": "LCCA", "remark": "listed apart in the source"}, "[20]": {"target": "Pertuzumab kappa light chain Q124E_V133D_S176D_T178D", "experiment": "LCCA, SPR tag read-out"}, "[21]": {"target": "Pertuzumab kappa light chain Q124E_V133D_S176D_T178E", "experiment": "LCCA, SPR tag read-out"}, "[22]": {"target": "Pertuzumab kappa light chain S121K_S176E_T178E", "experiment": "LCCA"}, "[23]": {"target": "Pertuzumab kappa light chain S121K_S131D_V133G_T178F", "experiment": "LCCA, SPR tag read-out"}, "[24]": {"target": "Pertuzumab kappa light chain S121K_V133I_S176D_T178E", "experiment": "LCCA, SPR tag read-out"}, "[25]": {"target": "CAT-2200 lambda light chain S122D_E124Q_T131R", "experiment": "LCCA, SPR tag read-out", "remark": "listed apart in the source"}, "[26]": {"target": "Pertuzumab kappa light chain V133I_L135A_S176D_T178E", "experiment": "LCCA, SPR tag read-out"}},
  "note": "Like-named read-outs stand apart in the source and are kept apart here.",
  "data": [
    {"substance": "Pertuzumab Fab heavy chain L143E_K145T_Q179E_V190F", "values": [
      {"measurement": "H2L2:H2L1 median scalar value", "setting": "[1]", "value": -0.51, "unit": "ln"},
      {"measurement": "H2L2:H2L1 median scalar value", "setting": "[2]", "value": -0.29, "unit": "ln"},
      {"measurement": "H2L2:H2L1 normalized median ratio", "setting": "[3]", "value": 27, "unit": "%"},
      {"measurement": "H2L2:H2L1 median scalar value", "setting": "[4]", "value": "0.99 ln(ratio)"},
      {"measurement": "H2L2:H2L1 normalized median ratio", "setting": "[4]", "value": 73, "unit": "%"}
    ]},
    {"substance": "Pertuzumab Fab heavy chain L143R", "values": [
      {"measurement": "H2L2:H2L1 normalized median ratio", "setting": "[5]", "value": 96, "unit": "%"},
      {"measurement": "H2L2:H2L1 normalized median scalar value ln(r1/f1)", "setting": "[5]", "value": 3.06},
      {"measurement": "H2L2:H2L1 normalized median ratio", "setting": "[6]", "value": 4, "unit": "%"},
      {"measurement": "H2L2:H2L1 normalized median ratio", "setting": "[7]", "value": 15, "unit": "%"},
      {"measurement": "H2L2:H2L1 median scalar value", "setting": "[8]", "value": "0.87 ln(ratio)"},
      {"measurement": "H2L2:H2L1 median scalar value", "setting": "[9]", "value": "2.13 ln(ratio)"},
      {"measurement": "H2L2:H2L1 normalized median ratio", "setting": "[9]", "value": 89, "unit": "%"},
      {"measurement": "H2L2:H2L1 median scalar value", "setting": "[10]", "value": "1.72 ln(ratio)"},
      {"measurement": "H2L2:H2L1 normalized median ratio", "setting": "[10]", "value": 85, "unit": "%"},
      {"measurement": "H2L2:H2L1 normalized median ratio", "setting": "[11]", "value": 11, "unit": "%"}
    ]},
    {"substance": "Pertuzumab Fab heavy chain L143R_K228D", "values": [
      {"measurement": "H2L2:H2L1 normalized median ratio", "setting": "[12]", "value": 26, "unit": "%"},
      {"measurement": "H2L2:H2L1 median scalar value", "setting": "[13]", "value": "-0.2 ln(ratio)"},
      {"measurement": "H2L2:H2L1 median scalar value", "setting": "[14]", "value": "1.08 ln(ratio)"},
      {"measurement": "H2L2:H2L1 normalized median ratio", "setting": "[14]", "value": 74, "unit": "%"}
    ]},
    {"substance": "Pertuzumab Fab heavy chain L143R_S188K", "values": [
      {"measurement": "H2L2:H2L1 normalized median ratio", "setting": "[15]", "value": 22, "unit": "%"},
      {"measurement": "H2L2:H2L1 median scalar value", "setting": "[16]", "value": -0.02, "unit": "ln"},
      {"measurement": "H2L2:H2L1 median scalar value", "setting": "[17]", "value": 1.31, "unit": "ln"},
      {"measurement": "H2L2:H2L1 median scalar value", "setting": "[18]", "value": 1.21, "unit": "ln"},
      {"measurement": "H2L2:H2L1 median scalar value", "setting": "[19]", "value": 1.45, "unit": "ln"},
      {"measurement": "H2L2:H2L1 median scalar value", "setting": "[20]", "value": "0.02 ln(ratio)"},
      {"measurement": "H2L2:H2L1 median scalar value", "setting": "[21]", "value": "1.21 ln(ratio)"}
    ]},
    {"substance": "Pertuzumab Fab heavy chain S188K_K228D", "values": [
      {"measurement": "H2L2:H2L1 median scalar value", "setting": "[22]", "value": 2.83, "unit": "ln"},
      {"measurement": "H2L2:H2L1 normalized median ratio", "setting": "[12]", "value": 53, "unit": "%"},
      {"measurement": "H2L2:H2L1 median scalar value", "setting": "[23]", "value": "-0.08 ln(ratio)"},
      {"measurement": "H2L2:H2L1 normalized median ratio", "setting": "[23]", "value": 47, "unit": "%"},
      {"measurement": "H2L2:H2L1 median scalar value", "setting": "[24]", "value": "1.74 ln(ratio)"},
      {"measurement": "H2L2:H2L1 normalized median ratio", "setting": "[24]", "value": 85, "unit": "%"},
      {"measurement": "H2L2:H2L1 normalized median ratio", "setting": "[25]", "value": 15, "unit": "%"}
    ]},
    {"substance": "Pertuzumab Fab heavy chain S188K_V190F", "values": [
      {"measurement": "H2L2:H2L1 median scalar value", "setting": "[26]", "value": "0.88 ln(ratio)"}
    ]}
  ]
}
